Reference: US20230295324A1 (published 2023)

Target: T1, human OX40 on cells (CHO-K1/hu OX40) (human, UniProt P43489 29-277)
T1 construct: whole, on cells; Also used here for OX40 on the HEK293/OX40/NF-kb reporter cells and on human T cells in the functional assays; also called CHO-K1/OX40; human OX40 cells
T1 sequence (looked up): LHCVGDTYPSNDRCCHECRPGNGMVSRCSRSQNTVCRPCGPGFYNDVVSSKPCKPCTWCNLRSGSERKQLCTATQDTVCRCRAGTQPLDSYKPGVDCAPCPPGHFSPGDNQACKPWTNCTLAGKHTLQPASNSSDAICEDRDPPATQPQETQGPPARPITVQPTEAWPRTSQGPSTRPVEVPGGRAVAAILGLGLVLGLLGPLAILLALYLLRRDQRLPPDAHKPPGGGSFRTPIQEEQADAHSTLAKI
Assay: FACS, CHO-K1/hu OX40 cells
Outline: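 Binding of anti-human OX40 HCAb antibodies measured by flow cytometry on CHO-K1 cells stably overexpressing human OX40. Cells incubated with 3-fold serially diluted antibodies 1 h at 4 °C in the dark, washed, then secondary staining 30 min at 4 °C; fluorescence read by FACS.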

EC50: 5.25 nM
Maximum MFI: 3010 MFI
B1: PR002067 (antibody, human IgG1, V domains shown)
VH: EVQLLESGGGLVQPGGSLRLSCAASGFTFSSYAMSWVRQAPGKGLEWVSAISGRGGSTFYADSVRGRFTISRDNSKNTLYLQMNSLRAEDTAMYYCVDGTTGTTDVDYWGQGTLVTVSS
notes: no light chain; also called anti-OX40 HCAb antibody
